Test results published in the domain aggregation screens of Martell et al. (2025).

Experiment: soluble fraction after stress (log2 fold change); higher = more stays soluble; pooled small domains, quantitative proteomics
Settings: stress: 75 degC
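Also: 20 min heating vs room temperature control held 20 min.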

Sequence	soluble fraction (log2)
HMGFLTGNTQGEVNRKTKNQMVNIFLPTTPNPTSGFLLFVPKKDILRLTMTVEEGIKMIISAGMLTPS	-0.527
HMGFTDREREIIRNDLVATGRELFGTFGLKKTSIEDLTKAVGIAQGSFYTFFNSKEELYLEVMDREGEA	-1.14
HMGGALSPDFGWLAMIDPDEGRAITLYDIASGEAIAVLDTHEARVAALAWSPDGTRLASGDQNGLIVQWEI	-0.31
HMGGEEPYGSGSLRLAAGAVVPSGYTIKGNEDSMLYHTTESPWYKQTIAEVWFNAESAAQRAGFTRWDAKD	-0.137
HMGGEIGSGKNGYVAFYKGKKVDVKADSMYGAQKTAAKYFNAKKEYDVNVVLAEVDGKQYVQS	0.547
HMGGGVERLTPRQREVLGYMAEGRSNSWIAGAIGFSEKAVVQHTSKIYDALGLAVDADDHRRVLAVLRYLT	-1.44
HMGGKWKLRILWHIHHGDTRFSTLKRGIPEISEKILAQQLRELEEHQLIKRRVVTVMPPHVVYEL	-2.37
HMGGLAEIILNAIEIEGGFLPITDKSAPELIQSRLGMSKKAFKEAVGTLYKNRDIAIEPNGLRKI	-0.452
HMGGLALAEREVVEWLSQRNLLPSPDVVARAAAHPDGLGWLERSLAVLEGPRLFLGLGDLVPEP	-0.688
HMGGLAVQLVHAMTDQIRSGRLKAGDKLPTEAAIMKDFGVSRTVVREAISRLQASGWVDTRHGIGTFVLHQ	-2.1
HMGGLIEPLSARELEVLELMSLGKTNQEIARDLVVASGTIKAHAASIYRKLDAANRTEAVTHARELGIL	0.471
HMGGPEVLELEDVKVGSPGPDEIKVTNHAIGLNYIDTYHRSGLYPLKLPSGIGLEAAGKVEEIGSNV	0.00701
HMGGQEEALNRLVLRELLGTLEKKERDLIVRRYFYDQTQTKIAEALGISQVQVSRMEKRILKKMREGF	-0.98
HMGGRSARVRRAVLDAVVELLGEGGVRAVTIAEVAKRSGVNASSIYRRWRSIDALILDAAQDL	-2.51
HMGGSDIYLGAFNIPQGSVRVTSGGQALTEGKDFTIDYNLGSVKIINQAILNSGIPVSVSYENNAG	0.0185
HMGGSLADAKRFLADLLADGPVPAKGVRADADGAGHTWPTIRRAQKALGIEATKTGMKGGWVWALPR	-0.165
HMGGSVYTVQKGDTLWSIAKEQLGSPLRYAEIYDLNKDVIEEAARGRGKKDSSNGHWLVVGTSLQIPEAT	0.184
HMGGTAGKINAIGVNFRTGPSTSYTSLGLLGKDTAVTVIGTSGKWYKVTIVSTGKTGYVYATYVNLTP	-2.25
HMGGVIEDDRGQWAHPGEVTKINSNNITMKGVDFPVLGISDTGDKKMMQPGKDYKFDGNSVTEYPMA	-0.24
HMGGWEEGVYVVREGDTLSDIVHDAVKGTEIHPDFILNAIVRVNPSAFVRGNPSWMLAGKKIK	-0.0613
HMGGYVTGTIDLTKFGYAFVITEESEDDVFVAARNLNTALHGDQVKVLLYARHKGKRPEGEVVEIISRSRA	-2.35
HMGHEEPITFDRLPQAAQTFLKTHFDTLTVAYIVADRKFMGVEYEVKYTDRTEVDFRSDGQWESV	0.085
HMGHKTLTVELQEKIENLPQTLDKYNLTLGNNKMSVDYTYSVKEKQTGITNLLQDLKEHKFDIVYLVGQDN	0.343
HMGHLSNENAGRLLDRVLNDKIHAIMLGHLSKENNMPELAHEAVRMEITMGESRYKADDFPIYVA	-0.0465
HMGHTKLVVDIVEELKLEQGALLPILHAIQDELGYVPTKSVPFIADSLNLSRAEVHGVISFYHYFR	0.153
HMGIAWGMLREQVAASDVSYRSEVLDILDRTPVWIYDAEGKIVDGRKKRLMDLQGGEPYRHMLEHFFPDLR	-2.43
HMGIDAIDNFVSKIIMKIEGLGESEVPTSTIGKFIMEGLQYLDTVAYVRYASVYKNFKEAKDFEQFVGSL	-0.0349
HMGIDRPLFTLAQFARQIGEQVKISLSLPQDGRRRLQGKVLSVGESGIVLDVDGREFTVAIGNVDKARL	-1.83
HMGIDSSVYVEARYELGHLYLKQKKYAAAYASFKEILDMYASTTPGVLPGAYNKLAEIGMKRIPKNKL	-2.66
HMGIIQAQIPGLVSRLFVKKGDKVAVNQRLFILEAMKMENEIDSPIQGMVEKIHITTGSKVEKGDLIMEIV	-2.9
